Assay results published in paper PMC1933402 (The EMBO Journal, 2007).

T1: His-tagged WT APPL1 (5−419) (human, UniProt Q9UKG1 5-419)
T1 sequence (looked up): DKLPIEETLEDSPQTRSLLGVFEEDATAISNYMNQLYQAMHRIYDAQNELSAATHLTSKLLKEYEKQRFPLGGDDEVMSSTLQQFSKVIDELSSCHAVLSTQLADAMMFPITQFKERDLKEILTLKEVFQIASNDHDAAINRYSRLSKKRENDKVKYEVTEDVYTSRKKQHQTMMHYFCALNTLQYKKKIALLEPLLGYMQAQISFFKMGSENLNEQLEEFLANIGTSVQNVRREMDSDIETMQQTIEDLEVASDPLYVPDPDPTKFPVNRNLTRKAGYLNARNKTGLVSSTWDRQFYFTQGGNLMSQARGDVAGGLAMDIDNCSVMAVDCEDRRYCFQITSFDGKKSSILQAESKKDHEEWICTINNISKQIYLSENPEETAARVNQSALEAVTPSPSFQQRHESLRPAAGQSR


Experiments:
AUC = molecular target: the molecule itself; assay: AUC
[1] = molecular target: T1, His-tagged WT APPL1 (5−419); assay: SPR

Row | Binder | Kd (AUC) | Kd [1] | koff [1] | kon [1]
1 | APPL1 BAR domain (residues 5−265), His tag removed (domain or fragment, human) GSHMDKLPIEETLEDSPQTRSLLGVFEEDATAISNYMNQLYQAMHRIYDAQNELSAATHLTSKLLKEYEKQRFPLGGDDEVMSSTLQQFSKVIDELSSCHAVLSTQLADAMMFPITQFKERDLKEILTLKEVFQIASNDHDAAINRYSRLSKKRENDKVKYEVTEDVYTSRKKQHQTMMHYFCALNTLQYKKKIALLEPLLGYMQAQISFFKMGSENLNEQLEEFLANIGTSVQNVRREMDSDIETMQQTIEDLEVASDPLYVPD | 130 nM |  |  | 
2 | full-length Rab5-Q79L coupled to the SPR biosensor chip (natural protein, human, UniProt P20339-1 1-215, looked up) MASRGATRPNGPNTGNKICQFKLVLLGESAVGKSSLVLRFVKGQFHEFQESTIGAAFLTQTVCLDDTTVKFEIWDTAGLERYHSLAPMYYRGAQAAIVVYDITNEESFARAKNWVKELQRQASPNIVIALSGNKADLANKRAVDFQEAQSYADDNSLLFMETSAKTSMNVNEIFMAIAKKLPKNEPQNPGANSARGRGVDLTEPTQPTRNQCCSN |  | 900 ± 700 nM | 0.0012 s⁻¹ | 1300 M⁻¹ s⁻¹
